Where two headings read alike, the source gives them in different places. *1 amine or outer side, *2 acyl side, *3 side chain or, on linkers, in order; H or OH if unused. Where a SMILES comes first, the peptide text is derived from it. Bridges are numbered along the chain shown (N, C = ends). Where no end group is shown, it is not given here. [ ]: non-standard residue; d: D form. 4‑Aminomethyl‑phenylacetyl = 4-aminomethyl-phenylacetyl unit, its amine closes the lactam, O=C(Cc1ccc(CN[*:1])cc1)[*:2]; 2Nal = N[C@@H](Cc1ccc2ccccc2c1)C(=O)O; AEF = NCCOc1ccc(C[C@H](N)C(=O)O)cc1; X1 = O=C(Cc1ccc(CN[*:1])cc1)[*:2]; 3Pal = N[C@@H](Cc1cccnc1)C(=O)O; αMeL = CC(C)C[C@](C)(N)C(=O)O; β3hL = CC(C)C[C@H](N)CC(=O)O; 3Amb = NCc1cccc(C(=O)O)c1; Dab = NCC[C@H](N)C(=O)O
T1: human IL-23R (Homo sapiens, UniProt Q5VWK5)
T1 sequence (Q5VWK5 22-629): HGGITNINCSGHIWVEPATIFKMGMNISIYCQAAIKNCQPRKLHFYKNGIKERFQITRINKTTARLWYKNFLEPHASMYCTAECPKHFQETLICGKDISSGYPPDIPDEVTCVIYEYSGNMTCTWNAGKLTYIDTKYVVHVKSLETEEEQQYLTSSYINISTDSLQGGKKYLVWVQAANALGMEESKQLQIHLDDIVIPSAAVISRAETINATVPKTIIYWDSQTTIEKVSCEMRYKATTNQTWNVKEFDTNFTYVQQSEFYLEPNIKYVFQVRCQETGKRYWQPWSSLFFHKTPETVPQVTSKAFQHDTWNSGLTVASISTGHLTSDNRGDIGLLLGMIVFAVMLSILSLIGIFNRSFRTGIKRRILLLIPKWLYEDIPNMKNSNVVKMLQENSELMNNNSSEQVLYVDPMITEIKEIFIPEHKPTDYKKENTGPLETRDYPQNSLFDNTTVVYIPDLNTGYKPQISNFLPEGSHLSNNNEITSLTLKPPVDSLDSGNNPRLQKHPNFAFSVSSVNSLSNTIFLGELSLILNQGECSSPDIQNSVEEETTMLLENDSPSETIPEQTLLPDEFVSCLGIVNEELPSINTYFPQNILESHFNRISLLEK

T2: human IL-23R endogenously expressed on DB cells (human, UniProt Q5VWK5 24-629)
T2 sequence (looked up): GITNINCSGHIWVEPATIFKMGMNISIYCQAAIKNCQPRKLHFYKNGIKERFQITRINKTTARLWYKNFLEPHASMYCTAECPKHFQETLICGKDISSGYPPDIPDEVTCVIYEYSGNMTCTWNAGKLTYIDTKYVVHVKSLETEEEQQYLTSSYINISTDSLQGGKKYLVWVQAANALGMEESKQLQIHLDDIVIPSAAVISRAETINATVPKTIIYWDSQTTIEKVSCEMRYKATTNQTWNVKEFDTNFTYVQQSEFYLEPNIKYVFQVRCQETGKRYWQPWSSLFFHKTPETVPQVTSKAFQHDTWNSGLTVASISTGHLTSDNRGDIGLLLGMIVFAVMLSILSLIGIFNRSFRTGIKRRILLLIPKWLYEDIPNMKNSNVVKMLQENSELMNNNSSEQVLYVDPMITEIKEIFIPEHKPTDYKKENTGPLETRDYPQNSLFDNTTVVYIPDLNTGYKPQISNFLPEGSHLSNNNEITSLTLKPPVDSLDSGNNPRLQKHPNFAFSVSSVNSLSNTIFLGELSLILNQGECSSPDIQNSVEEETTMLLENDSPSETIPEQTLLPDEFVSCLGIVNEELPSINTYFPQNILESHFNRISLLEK

T3: Nluc-IL23R fusion protein (human, UniProt Q5VWK5 22-629)
T3 construct: range 22-629; expressed with a secretion signal in HEK293 cells; used as crude membrane preparation; also called hIL-23R; human IL-23R; not shown: Nanoluc protein from the expression plasmid N1371 (Promega), N-terminal of IL-23R
T3 sequence (looked up): T1 sequence (Q5VWK5 22-629)

B1: Ref 4 (peptide)
peptide: H-DESCWQCWWLKR-NH2
modifications: lactam 2-11; bridge 4-7; not fully specified (bridges)
B2: Ref 17 (peptide)
peptide: Ac-DESCWQCW[2Nal]LKR-NH2
modifications: lactam 2-11; bridge 4-7; not fully specified (bridges); printed as [Ac]-DE(1c)SC(2a)WQC(2a)W[2-Nal]LK(1c)R-[NH2]
B3: Ref 18 (peptide)
peptide: Ac-KSCWQCW[2Nal]LER-NH2
modifications: lactam 1-10; bridge 3-6; not fully specified (bridges); printed as [Ac]-K(1c)SC(2a)WQC(2a)W[2-Nal]LE(1c)R-[NH2]
B4: Ref 37 (peptide)
peptide: [3Amb]SCWQCW[2Nal]LER-NH2
modifications: lactam N-10; bridge 3-6; not fully specified (bridges); printed as [(3-Aminomethyl)benzoyl](1c)*SC(2a)WQC(2a)W[2-Nal]LE(1c)R-[NH2]
B5: Ref 41 (peptide)
peptide: [3Amb]SCWQC[AEF][2Nal][αMeL]E[dR]-NH2
modifications: lactam N-10; bridge 3-6; not fully specified (bridges); printed as [(3-Aminomethyl)benzoyl](1c)*SC(2a)WQC(2a)[Y(2-aminoethoxy)][2-Nal][2-Me-Leu]E(1c)[{d}R]-[NH2]
notes: Y = Y(2-aminoethoxy), R = D-Arg
B6: Ref 81 (peptide)
peptide: [4‑Aminomethyl‑phenylacetyl]SCWQC[AEF][2Nal][αMeL]ES-NH2
modifications: lactam (positions not given here); bridge 3-6; not fully specified (bridges); printed as [4-Aminomethyl-phenylacetyl](1c)*SC(2a)WQC(2a)[Y(2-aminoethoxy)][2-Nal][2-Me-Leu]E(1c)S-[NH2]
notes: Y = Y(2-aminoethoxy)
B7: Ref 52 (peptide)
peptide: [4‑Aminomethyl‑phenylacetyl]SCWQC[AEF][2Nal][αMeL]ER-NH2
modifications: lactam N-10; bridge 3-6; not fully specified (bridges); printed as [4-Aminomethyl-phenylacetyl](1c)*SC(2a)WQC(2a)[Y(2-aminoethoxy)][2-Nal][2-Me-Leu]E(1c)R-[NH2]
notes: Y = Y(2-aminoethoxy)

Key:
human IL-23R = molecular target: T1, human IL-23R; test: biochemical
How it was run: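 BRET displacement of a TAMRA-labelled reference compound from N-terminal Nanoluc-IL-23R fusion protein in membranes from stably transfected HEK293 cells. Incubation 2 h at room temperature, then Nanoluc substrate was added and the TAMRA/Nanoluc ratio read. IC50 and maximal displacement came from 4-parameter logistic fits.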

[1] = molecular target: IL-23 mediated STAT3 signalling (Homo sapiens, UniProt Q5VWK5); test: Functional inhibition of IL-23 mediated STAT3 signalling (phospho-STAT3 Tyr705 MSD, DB cells); format: cell-based
Method: The ability of compounds to inhibit IL-23 mediated signalling was determined in the human-derived DB cell line (CRL-2289) (hereafter referred to as DB cells), which endogenously expresses the human IL-23R and human IL-12R β1 subunits. Upon binding of IL-23, the IL-23R forms a heterodimer signalling complex together with IL-12R β1, which through the JAK2/STAT3 pathway promotes phosphorylation of STAT3 to form phospho-STAT3. In the assay, the functional antagonism of IL-23 mediated phospho-STAT3 formation in DB cells by the compound is quantified using reagents capable of measuring the phosphorylation state of Tyr705 of STAT3 in the form of a phospho-STAT3 (Tyr705) MSD (Meso Scale Discovery) kit.
[…]. For compounds tested in this assay, the response was normalized relative to control values to calculate the IC50 and maximal inhibitory response from a concentration response curve of the compound in presence of a fixed concentration of human IL-23.
The assay procedure was as follows. DB cells were maintained in growth medium consisting of RPMI-1640 [Invitrogen 61870-010] supplemented with 10% V/V Foetal Bovine Serum (FBS) [(heat inactivated), Invitrogen 10270-106], and 1% V/V Penicillin-Streptomycin (Pen-Strep) Solution [Invitrogen 15140]. On the day of assay, cells were resuspended in Assay buffer consisting of RPMI-1640 [Invitrogen 61870-010] supplemented with 0.1 % w/V BSA [Sigma-Aldrich A9430] to a density of 7.5x10^6 cells/mL. Compounds to be tested for inhibition of hIL-23 mediated signalling were serially diluted in Assay buffer to 3X the final concentration. A solution of hIL-23 corresponding to 3X the EC80 of hIL-23 (1.7 nM) was also prepared in Assay buffer. To initiate the assay, 20 µL of DB cell suspension (corresponding to 150.000 cells/well) was added to the wells of a 96-well V-bottom Polypropylene plate [Corning 3363] followed by addition of 3X 20 µL of the diluted test compounds to separate wells. Following preincubation of the DB cells with inhibitor for 15 min in a cell incubator (37 °C, 5% CO2), 20 µL of the prepared 3X the EC80 of hIL-23 solution was added to each well and incubated for 90 min in a cell incubator (37 °C, 5% CO2). For some wells buffer only or IL-23 only corresponding to the EC80 was added to obtain readouts needed for normalization. To terminate the assay, the plate was spun at 1000 G for 5 min to pellet cells, the supernatant removed using an 8-channel manual pipette, and then added 50 µL/well Complete Lysis Buffer from the MSD STAT3 kit (Cat# K150SVD, Mesoscale) to the cell pellet. To completely lyse cells to release phospho-STAT3 for detection, the plate was shaken for 10 min at room temperature (500 rpm) sealed with aluminium foil and placed at -80 °C for a minimum of 15 min. Detection of the phospho-STAT3 level in the cell lysate from the individual wells was determined using the MSD STAT3 kit (Cat# K150SVD, Mesoscale) and read on a Meso QuickPlex SQ 120 plate reader (Mesoscale).
For data analysis raw data counts from the Meso QuickPlex SQ 120 plate reader were normalized relative to the response by the EC80 of hIL-23 alone (no compound added) and the buffer level. Compound potency (IC50) and maximal inhibitory response (% inhibition) were estimated by computer-aided curve fitting using a 4-parameter logistic (4PL) non-linear model. […]. Typically compounds with a low IC50 are desired. Typically compounds capable of completely inhibiting the IL23-induced response are desired. […]. Table 3-2: hIL-23 (pSTAT3) antagonist IC50 and % inhibition data

[2] = molecular target: T2, human IL-23R endogenously expressed on …; test: cell-based or functional assay
[3] = molecular target: T3, Nluc-IL23R fusion protein; test: BRET competition vs TAMRA-labelled peptide, Nluc-IL23R membranes
[4] = molecular target: T3, Nluc-IL23R fusion protein; test: as above; remark: listed apart in the source
[5] = molecular target: T3, Nluc-IL23R fusion protein; test: Ki from BRET competition (Cheng-Prusoff), Nluc-IL23R membranes

| Molecule | % displacement (hIL-23R binding) (human IL-23R) | IC50 ([1]; Example 2 (Tables 2-1 to 2-4), read-out: IC50 (pSTAT3)) | IC50 (human IL-23R) | IC50 ([1]; Table 3-2, EC80 of hIL-23, read-out: hIL-23 (pSTAT3) antagonist IC50) | hIL-23 (pSTAT3) antagonist % inhibition [2] | hIL-23 (pSTAT3) antagonist IC50 [2] | % displacement (hIL-23R binding) [3] | IC50 [3] | IC50 [4] | Ki [5] |
| --- | --- | --- | --- | --- | --- | --- | --- | --- | --- | --- |
| CC(C)C[C@@H](CC(N)=O)NC(=O)[C@H](Cc1cccnc1)NC(=O)[C@H](CCN)NC(=O)[C@@H]1CCC(=O)NCc2ccc(cc2)CC(=O)N[C@@H](CO)C(=O)N[C@H]2CCC(=O)NCC[C@H](NC(=O)[C@H](CCC(N)=O)NC(=O)[C@H](Cc3c[nH]c4ccccc34)NC2=O)C(=O)N[C@@H](Cc2ccc(OCCN)cc2)C(=O)N[C@@H](Cc2ccc3ccccc3c2)C(=O)N[C@@](C)(CC(C)C)C(=O)N1 [Compound 11, [4-Aminomethyl-phenylacetyl](1c)*SE(2c)WQ[Dab](2c)[Y(2-aminoethoxy)][2-Nal][2-Me-Leu]E(1c)[Dab][3-(3-Pyridyl)-Ala][beta-hLeu]-[NH2]] ([X1]SEWQ[Dab][AEF][2Nal][αMeL]E[Dab][3Pal][β3hL]-NH2; lactam 3-6, N-10) | 103% | 0.68 nM |  |  |  |  |  |  |  |  |
| CC(C)C[C@]1(C)NC(=O)[C@H](Cc2ccc3ccccc3c2)NC(=O)[C@H](Cc2ccc(OCCN)cc2)NC(=O)[C@@H]2CCNC(=O)CC[C@H](NC(=O)[C@H](CO)NC(=O)Cc3ccc(cc3)CNC(=O)CC[C@@H](C(=O)NCC[C@H](N)C(=O)N[C@@](C)(Cc3cccnc3)C(N)=O)NC1=O)C(=O)N[C@@H](Cc1c[nH]c3ccccc13)C(=O)N[C@@H](CCC(N)=O)C(=O)N2 [Compound 15, [4-Aminomethyl-phenylacetyl](1c)*SE(2c)WQ[Dab](2c)[Y(2-aminoethoxy)][2-Nal][2-Me-Leu]E(1c)[Iso-Dab][2-Me-3-(3-Pyridyl)-Ala]-[NH2]] | 96% |  | 0.45 nM | 12 nM |  |  |  |  |  |  |
| B1 |  |  |  |  | 87% | 850 nM | 100% | 180 nM | 180 nM |  |
| B2 |  |  |  |  |  | 370 nM |  | 87 nM | 87 nM |  |
| B3 |  |  |  |  | 97% | 18 nM | 103% | 3.5 nM | 3.5 nM |  |
| B4 |  |  |  |  | 89% | 45 nM | 103% | 12 nM | 12 nM |  |
| B5 |  |  |  |  | 99% | 29 nM | 110% | 2.8 nM | 2.8 nM | 2.31 nM |
| B6 |  |  |  |  | 95% | 21 nM |  | 0.39 nM | 0.39 nM | 0.318 nM |
| B7 |  |  |  |  | 103% | 7.8 nM | 100% | 0.058 nM | 0.058 nM | 0.0475 nM |

— patent EP4471049A1 (Zealand Pharma A/S, priority 2023, dated 2024)
